In US20260092110A1 (Kyowa Kirin, published 2026):

T1: human MOG (hMOG) expressed on HEK293, Expi293F or L929 cells (human, UniProt Q16653 30-247)
T1 construct: also called hMOG/HEK293; hMOG/HEK293F
T1 chain: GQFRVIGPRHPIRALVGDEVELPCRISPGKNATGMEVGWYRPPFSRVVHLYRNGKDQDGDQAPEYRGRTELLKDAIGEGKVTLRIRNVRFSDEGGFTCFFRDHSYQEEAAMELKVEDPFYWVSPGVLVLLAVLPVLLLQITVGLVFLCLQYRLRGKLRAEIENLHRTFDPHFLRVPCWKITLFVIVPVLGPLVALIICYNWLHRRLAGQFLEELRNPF

B1: AVM-MOG01 IgG4PE(R409K) antibody (bispecific antibody)
heavy 1: EVQLVESGGGLVQPGRSLKLSCAASGFTFSNYAMAWVRRAPTKGLEWVASISNGGGNTYYRDSVKGRFTISRDDAKNTLYLQMDSLRSEDTATYYCARHGNYIYYGSFFDYWGQGVMVTVSSASTKGPSVFPLAPCSRSTSESTAALGCLVKDYFPEPVTVSWNSGALTSGVHTFPAVLQSSGLYSLSSVVTVPSSSLGTKTYTCNVDHKPSNTKVDKRVESKYGPPCPPCPAPEFEGGPSVFLFPPKPKDTLMISRTPEVTCVVVDVSQEDPEVQFNWYVDGVEVHNAKTKPREEQFNSTYRVVSVLTVLHQDWLNGKEYKCKVSNKGLPSSIEKTISKAKGQPREPQVYTLPPCQEEMTKNQVSLWCLVKGFYPSDIAVEWESNGQPENNYKTTPPVLDSDGSFFLYSKLTVDKSRWQEGNVFSCSVMHEALHNHYTQKSLSLSLGKDYKDDDDK
heavy 2: QVQLQQSGAGLLKPSETLSLTCAVSGGSFSGYYWTWIRQRPGKGLEWIGEINHRGSTDYNPSLKSRVTMSIDTSKSQFSLNLKSVTAADTAVYYCARAAWGSCYDGTCYPAEYFQYWGQGTLVTVSSASTKGPSVFPLAPCSRSTSESTAALGCLVKDYFPEPVTVSWNSGALTSGVHTFPAVLQSSGLYSLSSVVTVPSSSLGTKTYTCNVDHKPSNTKVDKRVESKYGPPCPPCPAPEFEGGPSVFLFPPKPKDTLMISRTPEVTCVVVDVSQEDPEVQFNWYVDGVEVHNAKTKPREEQFNSTYRVVSVLTVLHQDWLNGKEYKCKVSNKGLPSSIEKTISKAKGQPREPQVCTLPPSQEEMTKNQVSLSCAVKGFYPSDIAVEWESNGQPENNYKTTPPVLDSDGSFFLVSKLTVDKSRWQEGNVFSCSVMHEALHNHYTQKSLSLSLGKHHHHHH
light 1: QFVLSQPNSVSTNLGSTVKLSCKRSTGNIGSNYVSWYQQHEGRSPTTMIYRDDKRPDGVPDRFSGSIDRSSDSALLTINNVQTEDEADYFCQSYSSGINIFGGGTKLTVLGQPKAAPSVTLFPPSSEELQANKATLVCLISDFYPGAVTVAWKADSSPVKAGVETTTPSKQSNNKYAASSYLSLTPEQWKSHRSYSCQVTHEGSTVEKTVAPTECS
light 2: QSALTQPASVSGSPGQSITISCTGTSRDVGGYNYVSWYQQHPGKAPKLMIYDVNNRPSGVSNRFSGSKSGNTASLTISGLQAEDEADYFCSSYTSSSTPVVFGGGTKLTVLGQPKAAPSVTLFPPSSEELQANKATLVCLISDFYPGAVTVAWKADSSPVKAGVETTTPSKQSNNKYAASSYLSLTPEQWKSHRSYSCQVTHEGSTVEKTVAPTECS
notes: copies: 1 + 1 + 1 + 1
B2: AVM IgG4PE(R409K)_MOG01sscFv antibody (bispecific antibody)
heavy 1: EVQLVESGGGLVQPGRSLKLSCAASGFTFSNYAMAWVRRAPTKGLEWVASISNGGGNTYYRDSVKGRFTISRDDAKNTLYLQMDSLRSEDTATYYCARHGNYIYYGSFFDYWGQGVMVTVSSASTKGPSVFPLAPCSRSTSESTAALGCLVKDYFPEPVTVSWNSGALTSGVHTFPAVLQSSGLYSLSSVVTVPSSSLGTKTYTCNVDHKPSNTKVDKRVESKYGPPCPPCPAPEFEGGPSVFLFPPKPKDTLMISRTPEVTCVVVDVSQEDPEVQFNWYVDGVEVHNAKTKPREEQFNSTYRVVSVLTVLHQDWLNGKEYKCKVSNKGLPSSIEKTISKAKGQPREPQVYTLPPCQEEMTKNQVSLWCLVKGFYPSDIAVEWESNGQPENNYKTTPPVLDSDGSFFLYSKLTVDKSRWQEGNVFSCSVMHEALHNHYTQKSLSLSLGGGSGGGGSGGGGSGGGGSQVQLQQSGAGLLKPSETLSLTCAVSGGSFSGYYWTWIRQRPGKGLEWIGEINHRGSTDYNPSLKSRVTMSIDTSKSQFSLNLKSVTAADTAVYYCARAAWGSCYDGTCYPAEYFQYWGQGTLVTVSSGGGGSGGRASGGGGSQSALTQPASVSGSPGQSITISCTGTSRDVGGYNYVSWYQQHPGKAPKLMIYDVNNRPSGVSNRFSGSKSGNTASLTISGLQAEDEADYFCSSYTSSSTPVVFGGGTKLTVLDYKDDDDK
heavy 2: EVQLVESGGGLVQPGRSLKLSCAASGFTFSNYAMAWVRRAPTKGLEWVASISNGGGNTYYRDSVKGRFTISRDDAKNTLYLQMDSLRSEDTATYYCARHGNYIYYGSFFDYWGQGVMVTVSSASTKGPSVFPLAPCSRSTSESTAALGCLVKDYFPEPVTVSWNSGALTSGVHTFPAVLQSSGLYSLSSVVTVPSSSLGTKTYTCNVDHKPSNTKVDKRVESKYGPPCPPCPAPEFEGGPSVFLFPPKPKDTLMISRTPEVTCVVVDVSQEDPEVQFNWYVDGVEVHNAKTKPREEQFNSTYRVVSVLTVLHQDWLNGKEYKCKVSNKGLPSSIEKTISKAKGQPREPQVCTLPPSQEEMTKNQVSLSCAVKGFYPSDIAVEWESNGQPENNYKTTPPVLDSDGSFFLVSKLTVDKSRWQEGNVFSCSVMHEALHNHYTQKSLSLSLGKHHHHHH
light: B1 light 1
notes: copies: 1 + 1 + 2
B3: AVM IgG4PE(R409K)_MOG01 Fab antibody (bispecific antibody)
heavy 1: not shown
heavy 2: QVQLQQSGAGLLKPSETLSLTCAVSGGSFSGYYWTWIRQRPGKGLEWIGEINHRGSTDYNPSLKSRVTMSIDTSKSQFSLNLKSVTAADTAVYYCARAAWGSCYDGTCYPAEYFQYWGQGTLVTVSSASTKGPSVFPLAPCSRSTSESTAALGCLVKDYFPEPVTVSWNSGALTSGVHTFPAVLQSSGLYSLSSVVTVPSSSLGTKTYTCNVDHKPSNTKVDKRV
light: B1 light 1
B4: AVM IgG4PE(R409K)_MOG01dscFv11 antibody (bispecific antibody)
heavy: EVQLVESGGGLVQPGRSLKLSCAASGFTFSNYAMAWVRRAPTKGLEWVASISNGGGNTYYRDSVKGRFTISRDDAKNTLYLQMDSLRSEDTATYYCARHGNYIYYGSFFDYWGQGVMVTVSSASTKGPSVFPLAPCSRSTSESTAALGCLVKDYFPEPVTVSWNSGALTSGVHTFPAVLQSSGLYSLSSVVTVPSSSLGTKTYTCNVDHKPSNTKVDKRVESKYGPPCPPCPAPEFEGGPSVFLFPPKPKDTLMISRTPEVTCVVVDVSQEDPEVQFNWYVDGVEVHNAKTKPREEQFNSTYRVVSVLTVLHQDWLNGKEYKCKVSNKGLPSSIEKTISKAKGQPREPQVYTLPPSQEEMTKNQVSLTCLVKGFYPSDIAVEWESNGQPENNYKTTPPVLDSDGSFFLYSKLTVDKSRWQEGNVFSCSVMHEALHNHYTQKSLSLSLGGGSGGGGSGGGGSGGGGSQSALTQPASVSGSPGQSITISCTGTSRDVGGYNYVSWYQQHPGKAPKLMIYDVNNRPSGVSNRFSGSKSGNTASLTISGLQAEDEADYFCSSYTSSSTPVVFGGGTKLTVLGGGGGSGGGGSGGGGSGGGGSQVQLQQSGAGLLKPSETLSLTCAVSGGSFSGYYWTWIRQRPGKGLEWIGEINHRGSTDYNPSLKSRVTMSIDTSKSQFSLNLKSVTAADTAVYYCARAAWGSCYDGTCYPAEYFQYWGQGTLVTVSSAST
light: B1 light 1
notes: also called pCI-AVM-hLG4PE(R409K)_MOG01scFv11
B5: AVM IgG4PE(R409K)_AVMsscFv ANTIBODY (antibody)
heavy 1: EVQLVESGGGLVQPGRSLKLSCAASGFTFSNYAMAWVRRAPTKGLEWVASISNGGGNTYYRDSVKGRFTISRDDAKNTLYLQMDSLRSEDTATYYCARHGNYIYYGSFFDYWGQGVMVTVSSASTKGPSVFPLAPCSRSTSESTAALGCLVKDYFPEPVTVSWNSGALTSGVHTFPAVLQSSGLYSLSSVVTVPSSSLGTKTYTCNVDHKPSNTKVDKRVESKYGPPCPPCPAPEFEGGPSVFLFPPKPKDTLMISRTPEVTCVVVDVSQEDPEVQFNWYVDGVEVHNAKTKPREEQFNSTYRVVSVLTVLHQDWLNGKEYKCKVSNKGLPSSIEKTISKAKGQPREPQVYTLPPCQEEMTKNQVSLWCLVKGFYPSDIAVEWESNGQPENNYKTTPPVLDSDGSFFLYSKLTVDKSRWQEGNVFSCSVMHEALHNHYTQKSLSLSLGGGSGGGGSGGGGSGGGGSEVQLVESGGGLVQPGRSLKLSCAASGFTFSNYAMAWVRRAPTKGLEWVASISNGGGNTYYRDSVKGRFTISRDDAKNTLYLQMDSLRSEDTATYYCARHGNYIYYGSFFDYWGQGVMVTVSSGGGGSGGRASGGGGSQFVLSQPNSVSTNLGSTVKLSCKRSTGNIGSNYVSWYQQHEGRSPTTMIYRDDKRPDGVPDRFSGSIDRSSDSALLTINNVQTEDEADYFCQSYSSGINIFGGGTKLTVLDYKDDDDK
heavy 2: B2 heavy 2
light: B1 light 1
B6: AVM IgG4PE(R409K)_AVM Fab ANTIBODY (antibody)
heavy 1: not shown
heavy 2: EVQLVESGGGLVQPGRSLKLSCAASGFTFSNYAMAWVRRAPTKGLEWVASISNGGGNTYYRDSVKGRFTISRDDAKNTLYLQMDSLRSEDTATYYCARHGNYIYYGSFFDYWGQGVMVTVSSASTKGPSVFPLAPCSRSTSESTAALGCLVKDYFPEPVTVSWNSGALTSGVHTFPAVLQSSGLYSLSSVVTVPSSSLGTKTYTCNVDHKPSNTKVDKRV
light: B1 light 1
B7: AVM IgG4PE(R409K)_MOG01dscFv3 antibody (bispecific antibody)
heavy: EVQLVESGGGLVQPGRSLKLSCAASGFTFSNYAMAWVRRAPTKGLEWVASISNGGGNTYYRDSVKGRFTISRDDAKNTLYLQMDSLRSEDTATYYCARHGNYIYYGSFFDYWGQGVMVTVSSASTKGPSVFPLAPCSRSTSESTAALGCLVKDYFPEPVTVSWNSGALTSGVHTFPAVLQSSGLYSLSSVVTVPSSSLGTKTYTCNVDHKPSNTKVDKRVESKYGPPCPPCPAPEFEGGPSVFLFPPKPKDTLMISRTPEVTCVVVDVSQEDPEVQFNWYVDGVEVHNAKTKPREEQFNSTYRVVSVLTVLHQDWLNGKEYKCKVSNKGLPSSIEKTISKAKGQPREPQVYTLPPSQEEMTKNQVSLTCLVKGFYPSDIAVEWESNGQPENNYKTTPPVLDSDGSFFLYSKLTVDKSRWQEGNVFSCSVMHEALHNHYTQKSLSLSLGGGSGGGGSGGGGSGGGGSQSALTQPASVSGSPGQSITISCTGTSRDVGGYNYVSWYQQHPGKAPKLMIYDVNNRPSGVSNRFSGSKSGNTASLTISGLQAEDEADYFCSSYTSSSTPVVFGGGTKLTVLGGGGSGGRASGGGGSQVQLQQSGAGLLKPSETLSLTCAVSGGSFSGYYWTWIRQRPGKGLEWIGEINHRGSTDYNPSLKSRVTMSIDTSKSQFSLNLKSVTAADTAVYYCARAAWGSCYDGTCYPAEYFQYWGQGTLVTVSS
light: B1 light 1
notes: also called pCI-AVM-hLG4PE(R409K)_MOG01scFv3
B8: AVM IgG4PE(R409K)_MOG01dscFv5 antibody (bispecific antibody)
heavy: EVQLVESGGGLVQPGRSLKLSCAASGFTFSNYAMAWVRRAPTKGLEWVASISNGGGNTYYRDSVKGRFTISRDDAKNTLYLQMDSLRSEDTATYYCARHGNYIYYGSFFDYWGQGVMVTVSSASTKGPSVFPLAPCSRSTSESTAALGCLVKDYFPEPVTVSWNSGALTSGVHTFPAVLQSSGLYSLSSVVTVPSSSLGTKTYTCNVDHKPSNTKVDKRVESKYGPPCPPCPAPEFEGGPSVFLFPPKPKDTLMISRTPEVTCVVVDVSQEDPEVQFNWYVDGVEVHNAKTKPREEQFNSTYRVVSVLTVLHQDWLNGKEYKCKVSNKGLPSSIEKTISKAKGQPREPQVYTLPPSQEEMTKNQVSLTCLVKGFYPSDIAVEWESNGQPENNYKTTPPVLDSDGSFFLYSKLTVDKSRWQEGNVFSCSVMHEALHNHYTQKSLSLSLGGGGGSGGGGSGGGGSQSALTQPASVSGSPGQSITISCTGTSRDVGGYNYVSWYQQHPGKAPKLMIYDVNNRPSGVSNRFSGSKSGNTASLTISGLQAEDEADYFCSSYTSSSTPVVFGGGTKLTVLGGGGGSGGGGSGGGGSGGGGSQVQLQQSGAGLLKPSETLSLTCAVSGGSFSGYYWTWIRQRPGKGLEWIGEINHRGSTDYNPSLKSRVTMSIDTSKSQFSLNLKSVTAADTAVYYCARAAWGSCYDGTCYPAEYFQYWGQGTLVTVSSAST
light: B1 light 1
notes: also called pCI-AVM-hLG4PE(R409K)_MOG01scFv5
B9: AVM IgG4PE(R409K)_MOG01dscFv6 antibody (bispecific antibody)
heavy: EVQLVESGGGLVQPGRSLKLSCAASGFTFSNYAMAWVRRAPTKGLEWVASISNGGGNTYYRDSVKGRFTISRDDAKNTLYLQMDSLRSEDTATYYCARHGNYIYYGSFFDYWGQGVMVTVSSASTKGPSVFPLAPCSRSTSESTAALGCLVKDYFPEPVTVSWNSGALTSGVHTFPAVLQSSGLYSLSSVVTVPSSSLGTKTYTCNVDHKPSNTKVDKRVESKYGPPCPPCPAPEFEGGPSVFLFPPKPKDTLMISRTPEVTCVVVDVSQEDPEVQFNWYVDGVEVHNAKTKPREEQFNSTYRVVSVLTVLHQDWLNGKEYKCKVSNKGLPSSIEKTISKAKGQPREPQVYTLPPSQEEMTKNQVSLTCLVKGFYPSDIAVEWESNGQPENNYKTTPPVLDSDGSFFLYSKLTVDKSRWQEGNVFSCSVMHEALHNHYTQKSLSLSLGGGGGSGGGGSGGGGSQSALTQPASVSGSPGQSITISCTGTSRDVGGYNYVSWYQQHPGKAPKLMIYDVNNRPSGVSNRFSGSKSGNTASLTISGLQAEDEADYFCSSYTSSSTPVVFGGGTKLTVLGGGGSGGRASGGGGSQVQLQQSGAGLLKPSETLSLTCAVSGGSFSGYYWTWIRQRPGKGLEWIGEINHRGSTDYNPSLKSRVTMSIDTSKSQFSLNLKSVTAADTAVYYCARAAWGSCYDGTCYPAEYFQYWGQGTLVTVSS
light: B1 light 1
notes: also called pCI-AVM-hLG4PE(R409K)_MOG01scFv6
B10: AVM IgG4PE(R409K)_MOG01dscFv7 antibody (bispecific antibody)
heavy: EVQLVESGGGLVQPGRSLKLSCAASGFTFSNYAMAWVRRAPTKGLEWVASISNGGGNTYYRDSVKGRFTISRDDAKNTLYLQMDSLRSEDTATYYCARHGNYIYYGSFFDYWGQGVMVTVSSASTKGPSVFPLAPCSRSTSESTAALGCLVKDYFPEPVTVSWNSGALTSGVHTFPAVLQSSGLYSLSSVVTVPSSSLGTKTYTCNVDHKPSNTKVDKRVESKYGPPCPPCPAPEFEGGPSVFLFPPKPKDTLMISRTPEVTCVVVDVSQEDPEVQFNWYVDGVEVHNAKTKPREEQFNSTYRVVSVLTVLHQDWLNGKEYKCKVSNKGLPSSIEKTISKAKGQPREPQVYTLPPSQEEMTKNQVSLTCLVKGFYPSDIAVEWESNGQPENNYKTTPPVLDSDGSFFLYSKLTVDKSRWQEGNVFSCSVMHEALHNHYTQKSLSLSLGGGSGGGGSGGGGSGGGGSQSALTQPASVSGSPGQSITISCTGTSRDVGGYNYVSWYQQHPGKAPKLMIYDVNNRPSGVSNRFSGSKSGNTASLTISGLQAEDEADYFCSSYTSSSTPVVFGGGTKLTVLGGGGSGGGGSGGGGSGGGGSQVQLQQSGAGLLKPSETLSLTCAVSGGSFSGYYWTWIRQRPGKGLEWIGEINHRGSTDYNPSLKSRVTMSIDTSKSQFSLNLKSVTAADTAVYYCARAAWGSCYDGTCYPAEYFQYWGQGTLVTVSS
light: B1 light 1
notes: also called pCI-AVM-hLG4PE(R409K)_MOG01scFv7

Columns and labels:
[1] = biological target: T1, human MOG (hMOG) expressed on HEK293, …; test: flow cytometry on L929 cells expressing human MOG (hMOG/L929); antibody titrated, RPE-labelled goat anti-human antibody
Description: (§1) pEF6_hMOG obtained in Example 5 was introduced to mouse connective tissue-derived fibroblast L929 cells [American Type Culture Collection (ATCC) No.: CCL-1] using HilyMax (manufactured by Dojindo Laboratories). The gene-transfected cells were selected using an antibiotic substance, Blasticidin (manufactured by Invitrogen) and then cloned by the limiting dilution method. Using the L929 cells expressing hMOG on the cell surface (abbreviated as hMOG/L929 below), the reactivities of the bispecific antibodies were analyzed by the method described below.
(§2) The hMOG/L929 cells were suspended in a Staining Buffer (SB) of PBS containing 0.1% NaN₃ and 1% FBS and dispensed to a round-bottom 96-well plate (manufactured by Becton Dickinson). […] After suspending the pellets, the plate was left to stand at ice temperature for 30 minutes. The supernatants were removed after further centrifugation (2000 rpm, 4° C., two minutes), and the pellets were washed with SB. Then, 1 μg/mL RPE fluorescently labeled goat anti-human antibody (manufactured by Southern Biotech) was added, and the plate was incubated at ice temperature for 30 minutes. After washing with SB, the cells were suspended in SB, and the fluorescence intensities of the cells were measured with a flow cytometer FACS CANTO II (manufactured by Becton Dickinson). The results are shown in FIGS. 12A to 12C and FIGS. 13A and 13B.

[2] = biological target: T2, extracellular domain protein of rat MOG to which GST is added at the C-terminus (rMOG-GST) (rat); test: SPR as in Example 8 (antibody captured, rMOG-GST analyte)
T2 construct: whole construct entry
T2 sequence (chain, as listed by the source limits assumed): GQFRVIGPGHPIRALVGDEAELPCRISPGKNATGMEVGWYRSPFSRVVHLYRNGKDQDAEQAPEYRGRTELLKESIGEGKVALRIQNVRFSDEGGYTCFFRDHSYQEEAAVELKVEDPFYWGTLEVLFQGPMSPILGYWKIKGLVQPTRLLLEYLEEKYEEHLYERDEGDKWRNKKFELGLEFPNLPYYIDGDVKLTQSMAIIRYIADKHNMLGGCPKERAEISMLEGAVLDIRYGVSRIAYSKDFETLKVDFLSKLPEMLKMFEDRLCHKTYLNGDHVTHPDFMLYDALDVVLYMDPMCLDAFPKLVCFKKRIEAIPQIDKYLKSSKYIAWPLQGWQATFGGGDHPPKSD
Method: The antibodies were immobilized on CM5 sensor chips using a Human antibody Capture kit, and the binding abilities were evaluated using rMOG-GST produced in Example 4 as an analyte. The obtained sensorgrams were analyzed with BIA evaluation software, and the dissociation constants (KD values) were thus calculated.
Binding of the bispecific antibodies obtained in Example 6 and Example 16 to MOG was evaluated by the same method as that of Example 8.

[3] = biological target: T1, human MOG (hMOG) expressed on HEK293, …; test: flow cytometry, hMOG/L929 cells
Description: as §1, §2

| Binder | binding result [1] | Kd [2] | koff [2] | kon [2] | binding result [3] |
| --- | --- | --- | --- | --- | --- |
| B1 | binds | 12 nM | 0.0016 s⁻¹ | 130000 M⁻¹ s⁻¹ | – |
| B2 | binds | 200 nM | 0.01 s⁻¹ | 51000 M⁻¹ s⁻¹ | – |
| B3 | binds | 34 nM | 0.0035 s⁻¹ | 100000 M⁻¹ s⁻¹ | – |
| B4 | binds | – | – | – | – |
| B5 | no binding | – | – | – | – |
| B6 | no binding | – | – | – | – |
| B7 | – | 13 nM | 0.0022 s⁻¹ | 170000 M⁻¹ s⁻¹ | binds |
| B8 | – | 24 nM | 0.0048 s⁻¹ | 200000 M⁻¹ s⁻¹ | binds |
| B9 | – | – | – | – | binds |
| B10 | – | – | – | – | binds |
